Measured values: publication PMC9482650, “Quantitative fragmentomics allow affinity mapping of interactomes” (Nature Communications, 2022)

T1: ARHGAP21, Q5T5U3
T1 sequence (Q5T5U3 45-169, limits assumed, looked up): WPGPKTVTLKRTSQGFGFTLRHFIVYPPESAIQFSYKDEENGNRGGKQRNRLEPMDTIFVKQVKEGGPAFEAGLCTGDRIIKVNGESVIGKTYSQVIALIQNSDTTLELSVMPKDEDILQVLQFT

T2: DFNB31_2, Q9P202
T2 sequence (Q9P202 274-371, limits assumed, looked up): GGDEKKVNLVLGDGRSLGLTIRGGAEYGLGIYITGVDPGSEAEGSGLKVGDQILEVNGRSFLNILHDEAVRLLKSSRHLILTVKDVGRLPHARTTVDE

T3: GRIP1_2, Q9Y3R0
T3 sequence (Q9Y3R0 145-248, limits assumed, looked up): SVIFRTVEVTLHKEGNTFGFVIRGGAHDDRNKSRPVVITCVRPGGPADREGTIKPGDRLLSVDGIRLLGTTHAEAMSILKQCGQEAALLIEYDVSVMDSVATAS

T4: HTRA4, P83105
T4 sequence (P83105 378-476, limits assumed, looked up): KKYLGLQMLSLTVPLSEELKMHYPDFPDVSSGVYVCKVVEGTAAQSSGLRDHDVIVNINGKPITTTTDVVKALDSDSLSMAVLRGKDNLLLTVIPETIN

T5: MPP2, Q14168
T5 sequence (Q14168 180-250, limits assumed, looked up): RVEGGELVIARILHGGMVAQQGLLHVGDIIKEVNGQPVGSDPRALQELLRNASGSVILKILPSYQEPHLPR

T6: PARD3B_1, Q8TEW8
T6 sequence (Q8TEW8 196-299, limits assumed, looked up): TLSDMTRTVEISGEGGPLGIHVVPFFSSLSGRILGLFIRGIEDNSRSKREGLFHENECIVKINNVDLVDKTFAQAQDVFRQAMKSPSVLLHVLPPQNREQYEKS

T7: PDZRN3_1, Q9UPQ7
T7 sequence (Q9UPQ7 244-349, limits assumed, looked up): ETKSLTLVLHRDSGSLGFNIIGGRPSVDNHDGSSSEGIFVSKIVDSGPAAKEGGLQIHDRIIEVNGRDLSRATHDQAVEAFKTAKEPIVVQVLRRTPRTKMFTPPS

T8: SHANK1, Q9Y566
T8 sequence (Q9Y566 658-767, limits assumed, looked up): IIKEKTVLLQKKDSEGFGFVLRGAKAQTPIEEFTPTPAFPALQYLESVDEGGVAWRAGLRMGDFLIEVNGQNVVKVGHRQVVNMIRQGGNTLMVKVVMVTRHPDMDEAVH

T9: SNTB1, Q13884
T9 sequence (Q13884 107-205, limits assumed, looked up): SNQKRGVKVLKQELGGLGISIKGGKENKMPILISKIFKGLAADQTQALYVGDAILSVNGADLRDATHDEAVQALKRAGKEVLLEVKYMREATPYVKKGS

T10: TX1BP3, O14907
T10 sequence (O14907 10-122, limits assumed, looked up): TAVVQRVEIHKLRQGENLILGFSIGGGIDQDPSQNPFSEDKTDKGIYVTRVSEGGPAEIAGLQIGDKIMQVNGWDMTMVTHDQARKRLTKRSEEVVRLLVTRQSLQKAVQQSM


Columns and labels:
Assay in all cases: holdup assay
Design in all cases: key: below the threshold = too weak to quantify, mostly under pKd 3.1 to 4
Details in all cases: plain residues with an end cap or a label only (N-terminal biotin on a linker: ado-ado)
ARHGAP21, Q5T5U3 = molecular target: T1, ARHGAP21, Q5T5U3
DFNB31_2, Q9P202 = molecular target: T2, DFNB31_2, Q9P202
DLG2_2, Q15700 = molecular target: DLG2_2, Q15700
DLG5_1, Q8TDM6 = molecular target: DLG5_1, Q8TDM6
FRMPD2_2, Q68DX3 = molecular target: FRMPD2_2, Q68DX3
GOPC, Q9HD26 = molecular target: GOPC, Q9HD26
GRASP, Q7Z6J2 = molecular target: GRASP, Q7Z6J2
GRIP1_2, Q9Y3R0 = molecular target: T3, GRIP1_2, Q9Y3R0
GRIP2_3, Q9C0E4 = molecular target: GRIP2_3, Q9C0E4
HTRA2, O43464 = molecular target: HTRA2, O43464
HTRA4, P83105 = molecular target: T4, HTRA4, P83105
IL16_4, Q14005 = molecular target: IL16_4, Q14005
Inadl_3, Q8NI35 = molecular target: Inadl_3, Q8NI35
Inadl_4, Q8NI35 = molecular target: Inadl_4, Q8NI35
LAP2, Q96RT1 = molecular target: LAP2, Q96RT1
MAGI1_1, Q96QZ7 = molecular target: MAGI1_1, Q96QZ7
MAGI2_5, Q86UL8 = molecular target: MAGI2_5, Q86UL8
MAGI3_2, Q5TCQ9 = molecular target: MAGI3_2, Q5TCQ9
MPP2, Q14168 = molecular target: T5, MPP2, Q14168
NHERF2_2, Q15599 = molecular target: NHERF2_2, Q15599
PARD3B_1, Q8TEW8 = molecular target: T6, PARD3B_1, Q8TEW8
PARD3_3, Q8TEW0 = molecular target: PARD3_3, Q8TEW0
PDZRN3_1, Q9UPQ7 = molecular target: T7, PDZRN3_1, Q9UPQ7
SHANK1, Q9Y566 = molecular target: T8, SHANK1, Q9Y566
SNTB1, Q13884 = molecular target: T9, SNTB1, Q13884
TX1BP3, O14907 = molecular target: T10, TX1BP3, O14907

Chain of HTRA2, O43464 (O43464 355-458): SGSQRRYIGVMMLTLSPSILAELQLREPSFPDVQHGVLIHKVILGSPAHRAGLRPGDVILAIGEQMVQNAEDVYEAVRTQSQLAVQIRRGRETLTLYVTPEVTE
Chain of DLG5_1, Q8TDM6 (Q8TDM6 617-713): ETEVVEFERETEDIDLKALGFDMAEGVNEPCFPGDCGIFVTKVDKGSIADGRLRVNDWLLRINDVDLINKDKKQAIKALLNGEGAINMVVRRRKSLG
Chain of MAGI2_5, Q86UL8 (Q86UL8 915-1017): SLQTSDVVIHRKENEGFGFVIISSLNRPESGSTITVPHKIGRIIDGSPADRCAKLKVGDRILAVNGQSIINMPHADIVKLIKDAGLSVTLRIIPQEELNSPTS
Chain of DLG2_2, Q15700 (Q15700 189-283): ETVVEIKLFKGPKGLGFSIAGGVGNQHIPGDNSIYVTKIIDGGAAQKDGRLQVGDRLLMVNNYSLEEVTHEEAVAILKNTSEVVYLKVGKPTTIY
Chain of FRMPD2_2, Q68DX3 (Q68DX3 944-1038): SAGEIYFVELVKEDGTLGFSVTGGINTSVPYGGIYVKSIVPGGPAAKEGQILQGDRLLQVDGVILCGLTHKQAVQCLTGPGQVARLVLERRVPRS
Chain of GRASP, Q7Z6J2 (Q7Z6J2 96-193): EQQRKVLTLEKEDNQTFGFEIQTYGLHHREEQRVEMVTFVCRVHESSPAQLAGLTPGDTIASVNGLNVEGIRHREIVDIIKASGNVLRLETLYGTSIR
Chain of IL16_4, Q14005 (Q14005 1229-1329): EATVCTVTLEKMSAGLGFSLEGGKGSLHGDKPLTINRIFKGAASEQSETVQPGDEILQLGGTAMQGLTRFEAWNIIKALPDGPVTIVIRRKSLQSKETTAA
Chain of LAP2, Q96RT1 (Q96RT1 other isoform, or with tags, fused parts or gaps): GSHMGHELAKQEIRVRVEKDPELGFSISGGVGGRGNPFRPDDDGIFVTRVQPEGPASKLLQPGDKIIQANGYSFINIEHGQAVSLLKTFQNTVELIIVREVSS
Chain of NHERF2_2, Q15599 (Q15599 142-238): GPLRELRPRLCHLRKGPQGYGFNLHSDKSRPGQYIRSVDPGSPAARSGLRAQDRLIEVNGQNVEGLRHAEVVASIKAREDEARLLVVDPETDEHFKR
Chain of Inadl_3, Q8NI35 (Q8NI35 359-469): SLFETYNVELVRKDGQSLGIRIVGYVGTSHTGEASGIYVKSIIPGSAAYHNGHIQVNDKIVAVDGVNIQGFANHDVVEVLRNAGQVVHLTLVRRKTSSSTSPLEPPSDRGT
Chain of GRIP2_3, Q9C0E4 (Q9C0E4 238-339): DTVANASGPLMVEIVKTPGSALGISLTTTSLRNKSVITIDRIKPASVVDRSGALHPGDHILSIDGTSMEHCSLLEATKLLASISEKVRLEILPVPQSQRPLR
Chain of Inadl_4, Q8NI35 (Q8NI35 547-651): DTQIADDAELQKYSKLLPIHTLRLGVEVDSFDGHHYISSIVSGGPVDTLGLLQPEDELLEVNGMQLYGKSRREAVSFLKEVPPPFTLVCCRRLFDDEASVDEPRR
Chain of MAGI1_1, Q96QZ7 (Q96QZ7 1-106): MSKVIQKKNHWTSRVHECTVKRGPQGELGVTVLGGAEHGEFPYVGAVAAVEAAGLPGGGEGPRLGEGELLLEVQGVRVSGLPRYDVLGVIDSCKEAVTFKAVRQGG
Chain of MAGI3_2, Q5TCQ9 (Q5TCQ9 398-503): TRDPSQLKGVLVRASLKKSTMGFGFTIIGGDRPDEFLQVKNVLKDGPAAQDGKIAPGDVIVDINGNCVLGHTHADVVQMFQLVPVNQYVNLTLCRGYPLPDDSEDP
Chain of PARD3_3, Q8TEW0 (Q8TEW0 582-685): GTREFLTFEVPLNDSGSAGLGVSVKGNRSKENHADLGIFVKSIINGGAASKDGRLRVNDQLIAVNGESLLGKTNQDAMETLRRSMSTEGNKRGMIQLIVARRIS

Binder	pKd (ARHGAP21, Q5T5U3)	pKd (DFNB31_2, Q9P202)	pKd (DLG2_2, Q15700)	pKd (DLG5_1, Q8TDM6)	pKd (FRMPD2_2, Q68DX3)	pKd (GOPC, Q9HD26)	pKd (GRASP, Q7Z6J2)	pKd (GRIP1_2, Q9Y3R0)	pKd (GRIP2_3, Q9C0E4)	pKd (HTRA2, O43464)	pKd (HTRA4, P83105)	pKd (IL16_4, Q14005)	pKd (Inadl_3, Q8NI35)	pKd (Inadl_4, Q8NI35)	pKd (LAP2, Q96RT1)	pKd (MAGI1_1, Q96QZ7)	pKd (MAGI2_5, Q86UL8)	pKd (MAGI3_2, Q5TCQ9)	pKd (MPP2, Q14168)	pKd (NHERF2_2, Q15599)	other results
QSYPSKHDYV [CLDN18, P56856]	3.99	below the threshold	below the threshold	below the threshold	below the threshold	below the threshold	3.71	3.58	below the threshold	3.71	4.12	3.78	below the threshold	below the threshold	below the threshold	below the threshold	below the threshold	below the threshold	below the threshold	below the threshold	pKd (PARD3B_1, Q8TEW8): below the threshold; pKd (PARD3_3, Q8TEW0): 3.69; pKd (PDZRN3_1, Q9UPQ7): below the threshold; pKd (SHANK1, Q9Y566): below the threshold; pKd (SNTB1, Q13884): below the threshold; pKd (TX1BP3, O14907): 4.17
RFQQRMQTHV [KIRREL1, Q96J84]	below the threshold	below the threshold	4.44	below the threshold	below the threshold	3.91	4.35	below the threshold	below the threshold	below the threshold	4.14	below the threshold	below the threshold	below the threshold	below the threshold	below the threshold	3.74	5.37	below the threshold	3.57	pKd (PARD3B_1, Q8TEW8): below the threshold; pKd (PARD3_3, Q8TEW0): below the threshold; pKd (PDZRN3_1, Q9UPQ7): below the threshold; pKd (SHANK1, Q9Y566): 4.16; pKd (SNTB1, Q13884): below the threshold; pKd (TX1BP3, O14907): 4.85
LAHVKHKEQI [AQP3, Q92482]	3.98	below the threshold	below the threshold	below the threshold	below the threshold	below the threshold	below the threshold	below the threshold	below the threshold	below the threshold	3.79	below the threshold	below the threshold	below the threshold	below the threshold	below the threshold	below the threshold	below the threshold	below the threshold	below the threshold	pKd (PARD3B_1, Q8TEW8): below the threshold; pKd (PARD3_3, Q8TEW0): below the threshold; pKd (PDZRN3_1, Q9UPQ7): below the threshold; pKd (SHANK1, Q9Y566): below the threshold; pKd (SNTB1, Q13884): below the threshold; pKd (TX1BP3, O14907): below the threshold
REEPDHSTEV [CCRL2, O00421]	4.21	below the threshold	4.5	3.63	4.16	3.56	3.77	3.5	below the threshold	3.54	below the threshold	below the threshold	3.85	below the threshold	4.15	below the threshold	4.68	below the threshold	below the threshold	3.65	pKd (PARD3B_1, Q8TEW8): below the threshold; pKd (PARD3_3, Q8TEW0): 3.61; pKd (PDZRN3_1, Q9UPQ7): 4.2; pKd (SHANK1, Q9Y566): 4.13; pKd (SNTB1, Q13884): 4.36; pKd (TX1BP3, O14907): 3.49

Now from value to binder, other results behind:

pKd (ARHGAP21, Q5T5U3)	pKd (DFNB31_2, Q9P202)	pKd (DLG2_2, Q15700)	pKd (DLG5_1, Q8TDM6)	pKd (FRMPD2_2, Q68DX3)	pKd (GOPC, Q9HD26)	pKd (GRASP, Q7Z6J2)	pKd (GRIP1_2, Q9Y3R0)	pKd (GRIP2_3, Q9C0E4)	pKd (HTRA2, O43464)	pKd (HTRA4, P83105)	pKd (IL16_4, Q14005)	pKd (Inadl_3, Q8NI35)	pKd (Inadl_4, Q8NI35)	pKd (LAP2, Q96RT1)	pKd (MAGI1_1, Q96QZ7)	pKd (MAGI2_5, Q86UL8)	pKd (MAGI3_2, Q5TCQ9)	pKd (MPP2, Q14168)	pKd (NHERF2_2, Q15599)	Binder	other results
4.04	3.52	3.86	below the threshold	4.36	4.13	4.44	below the threshold	below the threshold	4.07	below the threshold	below the threshold	3.86	below the threshold	4.17	below the threshold	4.44	4.27	below the threshold	3.98	APIAGFSSFV [SDK2, Q58EX2]	pKd (PARD3B_1, Q8TEW8): 3.75; pKd (PARD3_3, Q8TEW0): 3.56; pKd (PDZRN3_1, Q9UPQ7): 3.78; pKd (SHANK1, Q9Y566): below the threshold; pKd (SNTB1, Q13884): 3.97; pKd (TX1BP3, O14907): 4.84
4	below the threshold	below the threshold	below the threshold	below the threshold	below the threshold	below the threshold	below the threshold	below the threshold	3.53	3.9	3.5	below the threshold	below the threshold	below the threshold	below the threshold	below the threshold	below the threshold	below the threshold	3.77	EPQYQPGENL [SRC, P12931]	pKd (PARD3B_1, Q8TEW8): 3.91; pKd (PARD3_3, Q8TEW0): 3.6; pKd (PDZRN3_1, Q9UPQ7): below the threshold; pKd (SHANK1, Q9Y566): below the threshold; pKd (SNTB1, Q13884): 3.58; pKd (TX1BP3, O14907): below the threshold
